Results: US20150259666

Molecular target: Human PAI-1 (plasminogen activator inhibitor-1), P05121
Sequence (P05121 whole entry, looked up): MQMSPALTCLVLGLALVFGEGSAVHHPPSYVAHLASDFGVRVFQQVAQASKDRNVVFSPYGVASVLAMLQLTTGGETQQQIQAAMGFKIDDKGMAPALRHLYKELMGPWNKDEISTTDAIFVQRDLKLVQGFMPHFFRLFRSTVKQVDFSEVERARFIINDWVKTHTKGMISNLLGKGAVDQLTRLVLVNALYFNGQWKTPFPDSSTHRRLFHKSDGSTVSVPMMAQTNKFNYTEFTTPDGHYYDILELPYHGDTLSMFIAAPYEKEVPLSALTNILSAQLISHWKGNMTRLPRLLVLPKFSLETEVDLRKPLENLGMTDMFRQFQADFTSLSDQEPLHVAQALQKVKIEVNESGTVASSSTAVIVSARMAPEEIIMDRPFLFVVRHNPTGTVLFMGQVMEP

B1: full length t-PA (native human tissue plasminogen activator) (protein)
chain: SYQVICRDEKTQMIYQQHQSWLRPVLRSNRVEYCWCNSGRAQCHSVPVKSCSEPRCFNGGTCQQALYFSDFVCQCPEGFAGKCCEIDTRATCYEDQGISYRGTWSTAESGAECTNWNSSALAQKPYSGRRPDAIRLGLGNHNYCRNPDRDSKPWCYVFKAGKYSSEFCSTPACSEGNSDCYFGNGSAYRGTHSLTESGASCLPWNSMILIGKVYTAQNPSAQALGLGKHNYCRNPDGDAKPWCHVLKNRRLTWEYCDVPSCSTCGLRQYSQPQFRIKGGLFADIASHPWQAAIFAKHRRSPGERFLCGGILISSCWILSAAHCFQERFPPHHLTVILGRTYRVVPGEEEQKFEVEKYIVHKEFDDDTYDNDIALLQLKSDSSRCAQESSVVRTVCLPPADLQLPDWTECELSGYGKHEALSPFYSERLKEAHVRLYPSSRCTSQHLLNRTVTDNMLCAGDTRSGGPQANLHDACQGDSGGPLVCLNDGRMTLVGIISWGLGCGQKDVPGVYTKVTNYLDWIRDNMRP
- residual enzyme activity after 1 hour incubation with PAI-1 (PAI-1 resistance): Full length t-PA preserve the enzyme activity up to 54%
